Experimental data as given in patent US20240018502A1.

molecular target: plasma purified human complement protein C3 (human) (UniProt P01024); test: cell-based or functional assay
Sequence (P01024 23-667, chain 1 of 2): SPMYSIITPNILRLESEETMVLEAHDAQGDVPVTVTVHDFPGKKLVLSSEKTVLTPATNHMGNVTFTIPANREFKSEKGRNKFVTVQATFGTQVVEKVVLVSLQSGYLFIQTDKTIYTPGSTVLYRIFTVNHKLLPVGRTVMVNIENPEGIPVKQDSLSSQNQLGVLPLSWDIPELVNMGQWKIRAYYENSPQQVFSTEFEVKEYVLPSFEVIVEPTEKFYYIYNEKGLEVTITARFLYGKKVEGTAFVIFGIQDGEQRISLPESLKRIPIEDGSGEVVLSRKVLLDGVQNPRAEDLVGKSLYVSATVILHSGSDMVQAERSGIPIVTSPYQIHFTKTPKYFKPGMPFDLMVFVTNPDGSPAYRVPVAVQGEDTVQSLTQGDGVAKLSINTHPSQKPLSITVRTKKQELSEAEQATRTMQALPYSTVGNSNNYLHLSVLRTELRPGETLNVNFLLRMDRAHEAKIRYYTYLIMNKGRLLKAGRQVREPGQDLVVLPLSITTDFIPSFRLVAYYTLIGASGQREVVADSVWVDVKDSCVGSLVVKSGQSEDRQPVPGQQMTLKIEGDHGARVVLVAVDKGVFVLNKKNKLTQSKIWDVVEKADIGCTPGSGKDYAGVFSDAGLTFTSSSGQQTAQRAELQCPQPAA
Sequence (P01024 672-1663, chain 2 of 2): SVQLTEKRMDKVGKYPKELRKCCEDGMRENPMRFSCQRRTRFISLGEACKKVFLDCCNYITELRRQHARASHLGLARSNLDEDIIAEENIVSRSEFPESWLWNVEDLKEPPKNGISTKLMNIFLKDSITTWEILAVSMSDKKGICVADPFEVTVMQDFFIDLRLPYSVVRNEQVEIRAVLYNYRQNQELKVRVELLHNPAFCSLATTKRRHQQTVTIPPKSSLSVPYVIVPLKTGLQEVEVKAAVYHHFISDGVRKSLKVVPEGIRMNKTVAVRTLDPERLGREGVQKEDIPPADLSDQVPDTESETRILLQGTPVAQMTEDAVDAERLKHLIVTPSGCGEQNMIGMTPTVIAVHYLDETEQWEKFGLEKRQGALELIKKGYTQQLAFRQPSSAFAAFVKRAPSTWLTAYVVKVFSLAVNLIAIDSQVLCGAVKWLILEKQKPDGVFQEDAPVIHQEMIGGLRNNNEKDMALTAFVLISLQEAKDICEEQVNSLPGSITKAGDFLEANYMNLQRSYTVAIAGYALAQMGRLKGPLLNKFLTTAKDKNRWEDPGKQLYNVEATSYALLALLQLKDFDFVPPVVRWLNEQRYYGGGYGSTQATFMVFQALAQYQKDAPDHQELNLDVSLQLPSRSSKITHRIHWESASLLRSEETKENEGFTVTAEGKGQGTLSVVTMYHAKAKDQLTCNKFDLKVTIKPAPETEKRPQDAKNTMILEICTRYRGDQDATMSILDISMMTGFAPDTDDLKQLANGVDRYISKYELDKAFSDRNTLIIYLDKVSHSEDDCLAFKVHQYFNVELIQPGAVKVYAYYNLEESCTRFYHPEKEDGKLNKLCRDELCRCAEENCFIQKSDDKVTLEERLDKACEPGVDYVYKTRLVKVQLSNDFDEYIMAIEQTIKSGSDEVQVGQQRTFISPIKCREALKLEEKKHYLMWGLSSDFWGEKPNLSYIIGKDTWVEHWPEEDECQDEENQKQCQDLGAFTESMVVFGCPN

Row | EC50 hC3 cleavage [µM] | EC50 of hC3 cleavage [µM] | Binder
1 | 0.0165 | – | MTSP-1 protease domain I41E/F97V/F99L/C122S/G151N/Q175L/D217H (enzyme) VVGGTDADEGEWPWQVSLHALGQGHECGASLISPNWLVSAAHCYIDDRGFRYSDPTQWTAFLGLHDQSQRSAPGVQERRLKRIISHPFFNDVTLDYDIALLELEKPAEYSSMVRPISLPDASHVFPAGKAIWVTGWGHTQYGGTNALILQKGEIRVINQTTCENLLPQLITPRMMCVGFLSGGVDSCQGDSGGPLSSVEADGRIFQAGVVSWGHGCAQRNKPGVYTRLPLFRDWIKENTGV
2 | 0.0794 | – | MTSP-1 protease domain I41D/F97R/F99L/C122S/G151Q/Q175R/Q192V (enzyme) VVGGTDADEGEWPWQVSLHALGQGHDCGASLISPNWLVSAAHCYIDDRGFRYSDPTQWTAFLGLHDQSQRSAPGVQERRLKRIISHPFFNDRTLDYDIALLELEKPAEYSSMVRPISLPDASHVFPAGKAIWVTGWGHTQYGGTQALILQKGEIRVINQTTCENLLPQRITPRMMCVGFLSGGVDSCVGDSGGPLSSVEADGRIFQAGVVSWGDGCAQRNKPGVYTRLPLFRDWIKENTGV
3 | 0.0512 | – | MTSP-1 protease domain I41E/F97V/F99L/C122S/G151N/Q175L/Q192S (enzyme) VVGGTDADEGEWPWQVSLHALGQGHECGASLISPNWLVSAAHCYIDDRGFRYSDPTQWTAFLGLHDQSQRSAPGVQERRLKRIISHPFFNDVTLDYDIALLELEKPAEYSSMVRPISLPDASHVFPAGKAIWVTGWGHTQYGGTNALILQKGEIRVINQTTCENLLPQLITPRMMCVGFLSGGVDSCSGDSGGPLSSVEADGRIFQAGVVSWGDGCAQRNKPGVYTRLPLFRDWIKENTGV
4 | 0.0506 | – | MTSP-1 protease domain I41D/F97R/F99L/C122S/Q175R/Q192V/D217L (enzyme) VVGGTDADEGEWPWQVSLHALGQGHDCGASLISPNWLVSAAHCYIDDRGFRYSDPTQWTAFLGLHDQSQRSAPGVQERRLKRIISHPFFNDRTLDYDIALLELEKPAEYSSMVRPISLPDASHVFPAGKAIWVTGWGHTQYGGTGALILQKGEIRVINQTTCENLLPQRITPRMMCVGFLSGGVDSCVGDSGGPLSSVEADGRIFQAGVVSWGLGCAQRNKPGVYTRLPLFRDWIKENTGV
5 | 0.0916 | – | MTSP-1 protease domain F97V/F99L/C122S/G151N/Q175L/Q192S/D217H (enzyme) VVGGTDADEGEWPWQVSLHALGQGHICGASLISPNWLVSAAHCYIDDRGFRYSDPTQWTAFLGLHDQSQRSAPGVQERRLKRIISHPFFNDVTLDYDIALLELEKPAEYSSMVRPISLPDASHVFPAGKAIWVTGWGHTQYGGTNALILQKGEIRVINQTTCENLLPQLITPRMMCVGFLSGGVDSCSGDSGGPLSSVEADGRIFQAGVVSWGHGCAQRNKPGVYTRLPLFRDWIKENTGV
6 | 0.0271 | – | MTSP-1 protease domain I41E/F99L/C122S/G151N/Q175L/Q192S/D217H (enzyme) VVGGTDADEGEWPWQVSLHALGQGHECGASLISPNWLVSAAHCYIDDRGFRYSDPTQWTAFLGLHDQSQRSAPGVQERRLKRIISHPFFNDFTLDYDIALLELEKPAEYSSMVRPISLPDASHVFPAGKAIWVTGWGHTQYGGTNALILQKGEIRVINQTTCENLLPQLITPRMMCVGFLSGGVDSCSGDSGGPLSSVEADGRIFQAGVVSWGHGCAQRNKPGVYTRLPLFRDWIKENTGV
7 | 0.0516 | – | MTSP-1 protease domain I41G/F99L/C122S/G151N/Q175I/Q192T (enzyme) VVGGTDADEGEWPWQVSLHALGQGHGCGASLISPNWLVSAAHCYIDDRGFRYSDPTQWTAFLGLHDQSQRSAPGVQERRLKRIISHPFFNDFTLDYDIALLELEKPAEYSSMVRPISLPDASHVFPAGKAIWVTGWGHTQYGGTNALILQKGEIRVINQTTCENLLPQIITPRMMCVGFLSGGVDSCTGDSGGPLSSVEADGRIFQAGVVSWGDGCAQRNKPGVYTRLPLFRDWIKENTGV
8 | 0.0305 | – | MTSP-1 protease domain I41D/F99L/C122S/G151N/Q175S/Q192T/D217A (enzyme) VVGGTDADEGEWPWQVSLHALGQGHDCGASLISPNWLVSAAHCYIDDRGFRYSDPTQWTAFLGLHDQSQRSAPGVQERRLKRIISHPFFNDFTLDYDIALLELEKPAEYSSMVRPISLPDASHVFPAGKAIWVTGWGHTQYGGTNALILQKGEIRVINQTTCENLLPQSITPRMMCVGFLSGGVDSCTGDSGGPLSSVEADGRIFQAGVVSWGAGCAQRNKPGVYTRLPLFRDWIKENTGV
9 | 0.0411 | – | MTSP-1 protease domain I41E/F97R/F99L/C122S/G151Q/Q175G/Q192T (enzyme) VVGGTDADEGEWPWQVSLHALGQGHECGASLISPNWLVSAAHCYIDDRGFRYSDPTQWTAFLGLHDQSQRSAPGVQERRLKRIISHPFFNDRTLDYDIALLELEKPAEYSSMVRPISLPDASHVFPAGKAIWVTGWGHTQYGGTQALILQKGEIRVINQTTCENLLPQGITPRMMCVGFLSGGVDSCTGDSGGPLSSVEADGRIFQAGVVSWGDGCAQRNKPGVYTRLPLFRDWIKENTGV
10 | 0.0443 | – | MTSP-1 protease domain I41E/F97V/F99L/C122S/Q175L/Q192S/D217H (enzyme) VVGGTDADEGEWPWQVSLHALGQGHECGASLISPNWLVSAAHCYIDDRGFRYSDPTQWTAFLGLHDQSQRSAPGVQERRLKRIISHPFFNDVTLDYDIALLELEKPAEYSSMVRPISLPDASHVFPAGKAIWVTGWGHTQYGGTGALILQKGEIRVINQTTCENLLPQLITPRMMCVGFLSGGVDSCSGDSGGPLSSVEADGRIFQAGVVSWGHGCAQRNKPGVYTRLPLFRDWIKENTGV
11 | 0.0194 | – | MTSP-1 protease domain I41D/F97R/F99L/C122S/G151Q/Q175R/D217L (enzyme) VVGGTDADEGEWPWQVSLHALGQGHDCGASLISPNWLVSAAHCYIDDRGFRYSDPTQWTAFLGLHDQSQRSAPGVQERRLKRIISHPFFNDRTLDYDIALLELEKPAEYSSMVRPISLPDASHVFPAGKAIWVTGWGHTQYGGTQALILQKGEIRVINQTTCENLLPQRITPRMMCVGFLSGGVDSCQGDSGGPLSSVEADGRIFQAGVVSWGLGCAQRNKPGVYTRLPLFRDWIKENTGV
12 | 0.0422 | – | MTSP-1 protease domain I41E/F97V/F99L/C122S/G151N/Q192S/D217H (enzyme) VVGGTDADEGEWPWQVSLHALGQGHECGASLISPNWLVSAAHCYIDDRGFRYSDPTQWTAFLGLHDQSQRSAPGVQERRLKRIISHPFFNDVTLDYDIALLELEKPAEYSSMVRPISLPDASHVFPAGKAIWVTGWGHTQYGGTNALILQKGEIRVINQTTCENLLPQQITPRMMCVGFLSGGVDSCSGDSGGPLSSVEADGRIFQAGVVSWGHGCAQRNKPGVYTRLPLFRDWIKENTGV
13 | – | 0.00145 | MTSP-1 Q38H/I41S/D60bT/F60eS/Y60gW/D96K/F97G/ins97aV/T98P/F99L/C122S/G151H/Q175L (enzyme) VVGGTDADEGEWPWQVSLHALGHGHSCGASLISPNWLVSAAHCYIDTRGSRWSDPTQWTAFLGLHDQSQRSAPGVQERRLKRIISHPFFNKGVPLDYDIALLELEKPAEYSSMVRPISLPDASHVFPAGKAIWVTGWGHTQYGGTHALILQKGEIRVINQTTCENLLPQLITPRMMCVGFLSGGVDSCQGDSGGPLSSVEADGRIFQAGVVSWGDGCAQRNKPGVYTRLPLFRDWIKENTGV

Continued, binder first:

Row | Binder | EC50 hC3 cleavage [µM] | EC50 of hC3 cleavage [µM]
14 | MTSP-1 protease domain I41E/F97A/F99M/C122S/G151N/Q175R/Q192S/D217E (enzyme) VVGGTDADEGEWPWQVSLHALGQGHECGASLISPNWLVSAAHCYIDDRGFRYSDPTQWTAFLGLHDQSQRSAPGVQERRLKRIISHPFFNDATMDYDIALLELEKPAEYSSMVRPISLPDASHVFPAGKAIWVTGWGHTQYGGTNALILQKGEIRVINQTTCENLLPQRITPRMMCVGFLSGGVDSCSGDSGGPLSSVEADGRIFQAGVVSWGEGCAQRNKPGVYTRLPLFRDWIKENTGV | 0.485 | –
15 | MTSP-1 protease domain I41D/F97T/F99L/C122S/Q175S/Q192T/D217A (enzyme) VVGGTDADEGEWPWQVSLHALGQGHDCGASLISPNWLVSAAHCYIDDRGFRYSDPTQWTAFLGLHDQSQRSAPGVQERRLKRIISHPFFNDTTLDYDIALLELEKPAEYSSMVRPISLPDASHVFPAGKAIWVTGWGHTQYGGTGALILQKGEIRVINQTTCENLLPQSITPRMMCVGFLSGGVDSCTGDSGGPLSSVEADGRIFQAGVVSWGAGCAQRNKPGVYTRLPLFRDWIKENTGV | 0.0521 | –
16 | MTSP-1 protease domain I41D/F97R/F99L/C122S/G151Q/Q192V/D217L (enzyme) VVGGTDADEGEWPWQVSLHALGQGHDCGASLISPNWLVSAAHCYIDDRGFRYSDPTQWTAFLGLHDQSQRSAPGVQERRLKRIISHPFFNDRTLDYDIALLELEKPAEYSSMVRPISLPDASHVFPAGKAIWVTGWGHTQYGGTQALILQKGEIRVINQTTCENLLPQQITPRMMCVGFLSGGVDSCVGDSGGPLSSVEADGRIFQAGVVSWGLGCAQRNKPGVYTRLPLFRDWIKENTGV | 0.0423 | –
17 | MTSP-1 protease domain I41G/F99L/C122S/Q175I/Q192T/D217T (enzyme) VVGGTDADEGEWPWQVSLHALGQGHGCGASLISPNWLVSAAHCYIDDRGFRYSDPTQWTAFLGLHDQSQRSAPGVQERRLKRIISHPFFNDFTLDYDIALLELEKPAEYSSMVRPISLPDASHVFPAGKAIWVTGWGHTQYGGTGALILQKGEIRVINQTTCENLLPQIITPRMMCVGFLSGGVDSCTGDSGGPLSSVEADGRIFQAGVVSWGTGCAQRNKPGVYTRLPLFRDWIKENTGV | 0.0818 | –
18 | MTSP-1 protease domain I41D/F99L/C122S/G151Q/Q175R/Q192V/D217L (enzyme) VVGGTDADEGEWPWQVSLHALGQGHDCGASLISPNWLVSAAHCYIDDRGFRYSDPTQWTAFLGLHDQSQRSAPGVQERRLKRIISHPFFNDFTLDYDIALLELEKPAEYSSMVRPISLPDASHVFPAGKAIWVTGWGHTQYGGTQALILQKGEIRVINQTTCENLLPQRITPRMMCVGFLSGGVDSCVGDSGGPLSSVEADGRIFQAGVVSWGLGCAQRNKPGVYTRLPLFRDWIKENTGV | 0.0316 | –
19 | MTSP-1 protease domain I41G/F99L/C122S/G151N/Q192T/D217T (enzyme) VVGGTDADEGEWPWQVSLHALGQGHGCGASLISPNWLVSAAHCYIDDRGFRYSDPTQWTAFLGLHDQSQRSAPGVQERRLKRIISHPFFNDFTLDYDIALLELEKPAEYSSMVRPISLPDASHVFPAGKAIWVTGWGHTQYGGTNALILQKGEIRVINQTTCENLLPQQITPRMMCVGFLSGGVDSCTGDSGGPLSSVEADGRIFQAGVVSWGTGCAQRNKPGVYTRLPLFRDWIKENTGV | 0.0447 | –
20 | MTSP-1 protease domain F97R/F99L/C122S/G151Q/Q175R/Q192V/D217L (enzyme) VVGGTDADEGEWPWQVSLHALGQGHICGASLISPNWLVSAAHCYIDDRGFRYSDPTQWTAFLGLHDQSQRSAPGVQERRLKRIISHPFFNDRTLDYDIALLELEKPAEYSSMVRPISLPDASHVFPAGKAIWVTGWGHTQYGGTQALILQKGEIRVINQTTCENLLPQRITPRMMCVGFLSGGVDSCVGDSGGPLSSVEADGRIFQAGVVSWGLGCAQRNKPGVYTRLPLFRDWIKENTGV | 0.137 | –
21 | MTSP-1 Q38H/I41S/D60bT/F60eS/Y60gW/D96K/ins97aV/T98P/F99L/C122S/G151H/Q175L/Q192D (enzyme) VVGGTDADEGEWPWQVSLHALGHGHSCGASLISPNWLVSAAHCYIDTRGSRWSDPTQWTAFLGLHDQSQRSAPGVQERRLKRIISHPFFNKFVPLDYDIALLELEKPAEYSSMVRPISLPDASHVFPAGKAIWVTGWGHTQYGGTHALILQKGEIRVINQTTCENLLPQLITPRMMCVGFLSGGVDSCDGDSGGPLSSVEADGRIFQAGVVSWGDGCAQRNKPGVYTRLPLFRDWIKENTGV | – | 0.012
